Patent US20140056903A1 (Regeneron, published 2014)

T1: human GFRα3 expressed with a C-terminal mFc tag (human)
T1 construct: also called hGFRα3-mFc
T1 chain: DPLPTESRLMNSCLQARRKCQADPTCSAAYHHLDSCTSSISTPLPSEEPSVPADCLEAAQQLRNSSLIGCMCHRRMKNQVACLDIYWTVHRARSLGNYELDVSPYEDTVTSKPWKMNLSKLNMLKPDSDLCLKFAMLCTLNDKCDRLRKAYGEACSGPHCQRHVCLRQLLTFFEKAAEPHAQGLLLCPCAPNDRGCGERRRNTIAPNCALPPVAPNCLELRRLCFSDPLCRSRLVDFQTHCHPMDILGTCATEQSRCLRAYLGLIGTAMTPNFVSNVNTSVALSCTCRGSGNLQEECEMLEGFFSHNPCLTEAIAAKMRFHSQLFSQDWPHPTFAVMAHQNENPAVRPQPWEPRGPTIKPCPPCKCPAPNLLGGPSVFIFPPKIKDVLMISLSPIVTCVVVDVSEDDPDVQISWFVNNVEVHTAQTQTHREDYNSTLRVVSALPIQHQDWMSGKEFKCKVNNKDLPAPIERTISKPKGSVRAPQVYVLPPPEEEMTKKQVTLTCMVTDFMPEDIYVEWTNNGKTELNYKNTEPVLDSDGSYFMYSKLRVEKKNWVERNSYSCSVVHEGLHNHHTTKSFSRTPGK


Columns and labels:
[1] = molecular target: T2, human GFRα3 expressed with a C-terminal myc-myc-hexahistidine tag (human, UniProt O60609 32-374, biotinylated (sites not given) in ELISA format 2 and in the Octet cross-competition; not in SPR); assay: Octet cross-competition; biotin-hGFRα3-mmH pre-saturated with first antibody H4H2212N
T2 construct: also called hGFRα3-mmh; hGFRα3-mmH
Experimental: (§1) A cross-competition assay was conducted to assess the ability of select antibodies to compete with one another for binding to human GFRα3 using an Octet RED384 biosensor (Fortebio Inc.). The entire experiment was performed at 25° C. with the flow rate of 1000 rpm in Octet HBST buffer (0.01 M HEPES pH7.4, 0.15M NaCl, 3 mM EDTA, 0.05% v/v Surfactant P20, 0.1 mg/mL BSA). To assess whether 2 antibodies were able to compete with one another for binding to their respective epitopes on biotinylated recombinant human GFRα3 expressed with a C-terminal myc-myc-hexahistidine tag (biotin-hGFRα3-mmH; SEQ ID:370), around ˜1.2 nm of biotin-hGFRα3-mmH was first captured onto streptavidin-coated Octet sensor tips (Fortebio Inc, #18-5019) by submerging the tips for 1 minute into a 10 μg/mL solution of biotin-hGFRα3-mmH. The antigen coated sensor tips were then placed into wells containing 25 μg/mL solution of a first anti-GFRα3 monoclonal antibody for 4 minutes to saturate the biotin-hGFRα3-mmH surface. The sensor tips were then subsequently dipped into wells containing 25 μ/mL solution of a second anti-GFRα3 monoclonal antibody. The sensor tips were washed in Octet HBST buffer in between every step of the experiment. The real-time binding response was monitored during the course of the experiment and the binding response at the end of every step was recorded as shown in FIG. 9. The response of mAb-2 binding to biotin-hGFRα3-mmH pre-complexed with the first antibody was compared and competitive/non-competitive behavior of different anti-GFRα3 monoclonal antibodies was determined.

[2] = molecular target: T2, human GFRα3 expressed with a C-terminal …; assay: Octet cross-competition; biotin-hGFRα3-mmH pre-saturated with first antibody H4H2355S
Experimental: as §1

[3] = molecular target: T1, human GFRα3 expressed with a C-terminal …; assay: SPR, Ab captured, 25C
Procedure, shortened: (§2)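 Capture: anti-mIgG or anti-hIgG on CM5. Analyte: mmh antigen 200–7.4 nM, hFc antigen 100–3.7 nM, 3-fold series. Assoc ≤4 min, dissoc ≤20 min. 1:1 fit; KD = kd/kₐ, t½ = ln2/(60*kd).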

[4] = molecular target: T2, human GFRα3 expressed with a C-terminal …; assay: SPR, Ab captured, 25C
Procedure, shortened: as §2

[5] = molecular target: T2, human GFRα3 expressed with a C-terminal …; assay: Octet cross-competition; biotin-hGFRα3-mmH pre-saturated with first antibody H4H2294S
Experimental: as §1

[6] = molecular target: T2, human GFRα3 expressed with a C-terminal …; assay: Octet cross-competition; biotin-hGFRα3-mmH pre-saturated with first antibody H4H2236N3
Experimental: as §1

[7] = molecular target: T2, human GFRα3 expressed with a C-terminal …; assay: Octet cross-competition; biotin-hGFRα3-mmH pre-saturated with first antibody H4H2342P
Experimental: as §1

Row | binding response of second antibody (nm) [1] [nm] | binding response of second antibody (nm) [2] [nm] | Kd [3] [pM] | koff [3] [s⁻¹] | kon [3] [M⁻¹ s⁻¹] | t1/2 [3] [h] | Kd [4] [pM] | koff [4] [s⁻¹] | kon [4] [M⁻¹ s⁻¹] | t1/2 [4] [h] | binding response of second antibody (nm) [5] [nm] | binding response of second antibody (nm) [6] [nm] | binding response of second antibody (nm) [7] [nm] | Binder
1 | 2.05 | 0.07 | ≤ 1.64 | ≤ 1e-06 | 611000 | 192 | 821 | 0.000152 | 186000 | 1.27 | 0 | 0 | 0.16 | H4H2355S (antibody, human IgG4, V domains shown, human IgG4 Fc (H4H)) VH: EVQLVESGGGLVQPGGSLRLSCAASGFTFSSYAMSWVRQVPGKGLEWVSAISGSGDNTYNAESVKGRFTISRDNSKNMLYLQMNSLRAEDTAVYYCAKTKFSSSLLFDYWGQGTLVTVSS VL: not shown
2 | 2.38 | 0.16 | 32.4 | 2.52e-05 | 779000 | 7.63 | 2420 | 0.000557 | 230000 | 0.35 | 0.03 | 0.04 | 0.25 | H4H2357S (antibody, human IgG4, V domains shown, human IgG4 Fc (H4H)) VH: EVQLVESGGGLVQPGGSLRLSCAASTFTFSSYAMTWVRQAPGKGLEWVSSISGSGDSTYYADSVKGRFTISRDNSKNTLFLQMNSLRAEDTAVYYCAKKDGPGRYYVRYGMDVWGQGTTVTVSS VL: DIQMTQSPSSVSASVGDRVTITCRASQGISSWLAWYQQKPGKAPKLLIYTTSSLQSGVPSRFSGSGSGTDFTLTISSLQPEDFATYYCQQANSFPLTFGGGTKVDIK
3 | 1.76 | 1.92 | ≤ 1.87 | – | 534000 | 192 | 483 | 5.19e-05 | 108000 | 3.72 | 1.92 | 1.81 | 1.85 | H4H2292S (antibody, human IgG4, V domains shown, human IgG4 Fc (H4H)) VH: EVQLVESGGGVVQPGRSLRLSCAASGFTFSSYGMHWVRQAPGKGLEWVSFIWYDGSNKYYADSVKGRFTISRDNSKNTLYLQMNSLTAEDTAVYYCARRGILTGTTAFDIWGQGTMVTVSS VL: DIQMTQSPSSLSASVGDRVTITCRASQSISSYLNWYQQKPGKAPKLLIYAASSLQSGVPSRFSGSGSGTDFTLTIRSLIPEDFATYYCQQTYNTPFTFGPGTKVEIK
4 | 0.08 | 1.97 | ≤ 0.467 | ≤ 1e-06 | 2.14e+06 | 192 | 82 | 5.81e-05 | 709000 | 3.32 | 1.99 | 1.91 | 1.72 | H4H2352S (antibody, human IgG4, V domains shown, human IgG4 Fc (H4H); also called H4H2352S-1) VH: EVQLVQSGAEVKKPGASVKVSCKASGYTFTNYGITWVRQAPGQGLEWMGWISAYNGNTGYAQKFQGRVTMTTDTSTSTAYMELRSLRSDDTAVYYCAREDYDFWRAFDIWGQGTMVTVSS VL: EIVLTQSPGTLSLSPGERATLSCRASQSVSSTYLAWLQQKPGQAPRLLIYGASSRATGIPDRFSGSGSGTDFTLTINRLEPEDFAVYYCQQYAYSPYTFGQGTKLEIK
5 | 1.36 | 1.44 | 41.6 | 2.12e-05 | 509000 | 9.08 | 2010 | 0.000207 | 103000 | 0.933 | 1.42 | 1.35 | 1.46 | H4H2350P (antibody, human IgG4, V domains shown, human IgG4 Fc (H4H)) VH: QVQLQESGPGLVKPSETLSLTCTVSGGSISTYYWSWFRQPPGKGLEWIGYIYYSGSTNHNPSLKSRVTISVDTSKNQFSLKLRSVTAADTAVYYCARVGPVGWGSWGNFDYWGQGTLVTVSS VL: DIQLTQSPSFLSASVGDRVTITCWASQGISSYLAWSQQKPGKAPKLLIYAASTLQSGVPSRFSGSGSGTEFTLTISSLQPEDFATYYCQQLNSYPWTFGQGTKVEIK
